In this assay the target is Keap1 Kelch domain (amino acid residues 309 to 624) (human, UniProt Q14145 309-624). The assay is described as follows: ITC.
Sequence of Keap1 Kelch domain (amino acid residues 309 to 624) (Q14145 309-624): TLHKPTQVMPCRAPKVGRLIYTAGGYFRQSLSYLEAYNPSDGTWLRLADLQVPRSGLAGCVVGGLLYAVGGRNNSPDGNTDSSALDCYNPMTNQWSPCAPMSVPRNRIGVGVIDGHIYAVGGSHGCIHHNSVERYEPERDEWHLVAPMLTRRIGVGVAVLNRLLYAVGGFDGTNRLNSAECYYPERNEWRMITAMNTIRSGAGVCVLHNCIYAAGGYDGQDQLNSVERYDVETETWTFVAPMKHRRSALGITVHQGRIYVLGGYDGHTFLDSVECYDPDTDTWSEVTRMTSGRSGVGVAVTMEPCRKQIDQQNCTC

B1: PGAM5 IE 12‐mer peptide (peptide)
chain: INVRKRNVESGE
B1 registered a dissociation constant (Kd) of 63.6 µM.

B2: 6-mer peptide (peptide)
chain: NVESGE
modifications: Sequence shown only in Fig. 4B; limits taken as the NxESGE motif (UniProt Keap1-interaction region 77-82). Synthetic peptide, termini not stated
In the case of B2, the Kd amounted to 133 µM.

B3: ED 12-mer peptide (peptide)
chain: ESGEEELASKLD
modifications: Limits inferred from the name: first residue E, last residue D, 12 residues, containing ESGE; by analogy IE 12-mer = 71-82 (PDB 8IN0) and the 20-mer is probably 71-90. Synthetic peptide, termini not stated
In turn, B3 came in with an equilibrium dissociation constant (Kd) of 14 µM.

As a reminder, the Kd is the free concentration of one partner at which half of the binding sites on the other are occupied at equilibrium, for simple one-to-one binding. Read a high Kd as lower affinity.
